Laboratory results published in US5624899.

Target: murine Htk ligand (murine)
Experiment: steady-state competition of 125I-Htk-Fc with unlabelled Htk-Fc on SV40MES 13 cells, Scatchard analysis

Kd: 3 nM
Substance: soluble Htk receptor-Fc fusion protein
